According to patent publication US20180085455A1 (ISU ABXIS, published 2018):

What follows are binders tested against T1, recombinant human ErbB3 protein (R&D systems) (human, UniProt P21860 20-643) (assay: BLI (Octet QK384), human ErbB3 immobilized on AR2G sensor, IgG at 12.5-50 nM).
T1 construct: Bought recombinant protein; also called HER3
Description: After activation of carboxyl groups in 20 mM of 1-ethyl-3-(3-dimethylaminopropyl)carbodiimide hydrochloride (EDC) and 40 mM of N-hydroxysulfosuccinimide (sulfo-NHS) solution on an AR2G sensor (ForteBio), 10 μg/mL of human ErbB3 protein solution diluted with 10 mM of sodium acetate (pH 4.0) (ForteBio) was added to immobilize human ErbB3 protein onto the AR2G sensor. The AR2G sensor to which the human ErbB3 protein was immobilized and was treated with 1 M of ethanolamine (ForteBio) to inactivate the remaining unreacted carboxyl groups.

| Binder | Kd [pM] | koff [s⁻¹] | kon [M⁻¹ s⁻¹] |
| --- | --- | --- | --- |
| 472S1 (antibody, V domains shown, IgG1 (Selexis 085 vector, CHO)) VH: EVQLLESGGGLVQPGGSLRLSCAASGFTFSWYDMTWVRQAPGKGLEWVSGISYDGGNTYYADSVKGRFTISRDNSKNTLYLQMNSLRAEDTAVYYCARDPSWCLQDLCYYADGMDVWGQGTLVTVSS VL: QSVLTQPPSASGTPGQRVTISCSGSSSNIGSNSVSWYQQLPGTAPKLLIYADSNRPSGVPDRFSGSKSGTSASLAISGLRSEDEADYYCGSWDYSLSGYVFGGGTKLTVLG | < 1 | 3.33e-07 | 649000 |
| 451P (antibody, V domains shown, IgG1 (Selexis 085 vector, CHO); also called anti-ErbB3 lead antibody 451P) VH: EVQLLESGGGLVQPGGSLRLSCAASGFTFSDYDMSWVRQAPGKGLEWVSAIYYDSGSIYYADSAKGRFTISRDNSKNTLYLQMNSLRAEDTAVYYCAKDRLFVSDSTFDYWGQGTLVTVSS VL: QSVLTQPPSASGTPGQRVTISCSGSPSNIGNNSVTWYQQLPGTAPKLLIYYDSHRPSGVPDRFSGSKSGTSASLAISGLRSEDEADYYCGSWDASLNGYVFGGGTKLTVLG | 53.5 | 6.33e-05 | 1.18e+06 |
| 442M3 (antibody, V domains shown, IgG1 (Selexis 085 vector, CHO)) VH: EVQLLESGGGLVQPGGSLRLSCAASGFTFSDYDMSWVRQAPGKGLEWVSSIYPDSGSTYYADSVQGRFTISRDNSKNTLYLQMNSLRAEDTAVYYCAKDRHMWPEGPFDYWGQGTLVTVSS VL: QSVLTQPPSASGTPGQRVTISCSGSSSNIGSNSGSWYQQLPGTAPKLLIYADNWRPSGVPDRFSGSKSGTSASLAISGLRSEDEADYYCAAWDSSLSGYVFGGGTKLTVLG | 3.4 | 2.62e-06 | 771000 |
| 451M4 (antibody, V domains shown, IgG1 (Selexis 085 vector, CHO)) VH: EVQLLESGGGLVQPGGSLRLSCAASGFTFSYYDMSWVRQAPGKGLEWVSAIYYDSGSIYYADSAKGRFTISRDNSKNTLYLQMNSLRAEDTAVYYCAKDRLFASDSTFDYWGQGTLVTVSS VL: QSVLTQPPSASGTPGQRVTISCSGSPSNIGNNSVTWYQQLPGTAPKLLIYYDSHRPSGVPDRFSGSKSGTSASLAISGLRSEDEADYYCGSWDASLNGYVFGGGTKLTVLG | 6.12 | 1.23e-05 | 2.01e+06 |
| 442S2 (antibody, V domains shown, IgG1 (Selexis 085 vector, CHO)) VH: EVQLLESGGGLVQPGGSLRLSCAASGFTFSDYDMSWVRQAPGKGLEWVSSIYPDSGSTDYADSVQGRFTISRDNSKNTLYLQMNSLRAEDTAVYYCAKDLHMGPEGPFDYWGQGTLVTVSS VL: not shown | 71.1 | 8.28e-05 | 1.17e+06 |
| 442M11 (antibody, V domains shown, IgG1 (Selexis 085 vector, CHO)) VH: EVQLLESGGGLVQPGGSLRLSCAASGFTFSDYDMSWVRQAPGKGLEWVSTIEPDYGSTLYADSVQGRFTISRDNSKNTLYLQMNSLRAEDTAVYYCAKDLHMGPEGPFDYWGQGTLVTVSS VL: QSVLTQPPSASGTPGQRVTISCSGSSSNIGSNSVSWYQQLPGTAPKLLIYSDNHRPSGVPDRFSGSKSGTSASLAISGLRSEDEADYYCHAWDSSLSGDFFGGGTKLTVLG | 5.43 | 8.09e-06 | 1.49e+06 |
| 442M7 (antibody, V domains shown, IgG1 (Selexis 085 vector, CHO)) VH: EVQLLESGGGLVQPGGSLRLSCAASGFTFSDYDMSWVRQAPGKGLEWVSTIEPDSGSTYYADSVQSRFTISRDNSKNTLYLQMNSLRAEDTAVYYCAKDLHMGPEGPFDYWGQGTLVTVSS VL: not shown | 29.1 | 4.55e-05 | 1.56e+06 |
| 472S4 (antibody, V domains shown, IgG1 (Selexis 085 vector, CHO)) VH: EVQLLESGGGLVQPGGSLRLSCAASGFTFSWYDIAWVRQAPGKGLEWVSGISYDGGNTYYADSVKGRFTISRDNSKNTLYLQMNSLRAEDTAVYYCARDPSWCLQDLCYYADGMDVWGQGTLVTVSS VL: QSVLTQPPSASGTPGQRVTISCSGSSSNIGSNSVSWYQQLPGTAPKLLIYADSNRPSGVPDRFSGSKSGTSASLAISGLRSEDEADYYCGSWDYSLSGYVFGGGTKLTVLG | 9.41 | 1.09e-05 | 1.15e+06 |
| 442M10 (antibody, V domains shown, IgG1 (Selexis 085 vector, CHO)) VH: EVQLLESGGGLVQPGGSLRLSCAASGFTFSDYDMSWVRQAPGKGLEWVSSIYPDSGSTDYADSVQGRFTISRDNSKNTLYLQMNSLRAEDTAVYYCAKDLHMWPEGPFDYWGQGTLVTVSS VL: QSVLTQPPSASGTPGQRVTISCSGSSSNIGSNSVSWYQQLPGTAPKLLIYADNFRPSGVPDRFSGSKSGTSASLAISGLRSEDEADYYCAAWDSSLSGYVFGGGTKLTVLG | < 1 | < 1e-07 | 471000 |
| 451M3 (antibody, V domains shown, IgG1 (Selexis 085 vector, CHO)) VH: EVQLLESGGGLVQPGGSLRLSCAASGFTFSHYDMSWVRQAPGKGLEWVSAIYYDSGSIYYADSAKGRFTISRDNSKNTLYLQMNSLRAEDTAVYYCAKDRLFASDSTFDYWGQGTLVTVSS VL: QSVLTQPPSASGTPGQRVTISCSGSPSNIGNNSVTWYQQLPGTAPKLLIYYDSHRPSGVPDRFSGSKSGTSASLAISGLRSEDEADYYCGSWDASLNGYVFGGGTKLTVLG | < 1 | 2.3e-07 | 1.87e+06 |
| 442S6 (antibody, V domains shown, IgG1 (Selexis 085 vector, CHO)) VH: EVQLLESGGGLVQPGGSLRLSCAASGFTFSDYDMSWVRQAPGKGLEWVSSIYPDSGSTDYADSVQGRFTISRDNSKNTLYLQMNSLRAEDTAVYYCAKDRHMWPEGPFDYWGQGTLVTVSS VL: QSVLTQPPSASGTPGQRVTISCSGSSSNIGSNSGSWYQQLPGTAPKLLIYADNWRPSGVPDRFSGSKSGTSASLAISGLRSEDEADYYCAAWDSSLSGYVFGGGTKLTVLG | < 1 | < 1e-07 | 872000 |
| 442M4 (antibody, V domains shown, IgG1 (Selexis 085 vector, CHO)) VH: EVQLLESGGGLVQPGGSLRLSCAASGFTFSDYDMSWVRQAPGKGLEWVSTIDLDSGSIYYADSVQGRFTISRDNSKNTLYLQMNSLRAEDTAVYYCAKDLHMGPEGPFDYWGQGTLVTVSS VL: QSVLTQPPSASGTPGQRVTISCSGSSSNIGSNSVSWYQQLPGTAPKLLIYSDNHRPSGVPDRFSGSKSGTSASLAISGLRSEDEADYYCVGWDSSLYGHVFGGGTKLTVLG | < 1 | < 1e-07 | 573000 |
| 451M1 (antibody, V domains shown, IgG1 (Selexis 085 vector, CHO)) VH: EVQLLESGGGLVQPGGSLRLSCAASGFTFSDYDMSWVRQAPGKGLEWVSAIYYDSGSIYYADSAKGRFTISRDNSKNTLYLQMNSLRAEDTAVYYCAKDRLFMSDSTFDYWGQGTLVTVSS VL: QSVLTQPPSASGTPGQRVTISCSGSPSNIGNNSVTWYQQLPGTAPKLLIYYDSHRPSGVPDRFSGSKSGTSASLAISGLRSEDEADYYCGSWDASLNGYVFGGGTKLTVLG | 24.8 | 3.08e-05 | 1.24e+06 |
| 472S3 (antibody, V domains shown, IgG1 (Selexis 085 vector, CHO)) VH: EVQLLESGGGLVQPGGSLRLSCAASGFTFSWYDMSWVRQAPGKGLEWVSGISYDGGNTYYADSVKGRFTISRDNSKNTLYLQMNSLRAEDTAVYYCARDPSWCLQDLCYYADGMDVWGQGTLVTVSS VL: QSVLTQPPSASGTPGQRVTISCSGSSSNIGSNSVSWYQQLPGTAPKLLIYADSNRPSGVPDRFSGSKSGTSASLAISGLRSEDEADYYCGSWDYSLSGYVFGGGTKLTVLG | < 1 | 1.43e-07 | 522000 |
| 442M5 (antibody, V domains shown, IgG1 (Selexis 085 vector, CHO)) VH: EVQLLESGGGLVQPGGSLRLSCAASGFTFSDYDMSWVRQAPGKGLEWVSTIDLDSGSIYYADSVQGRFTISRDNSKNTLYLQMNSLRAEDTAVYYCAKDLHMGPEGPFDYWGQGTLVTVSS VL: QSVLTQPPSASGTPGQRVTISCSGSSSNIGSNSVSWYQQLPGTAPKLLIYSDNHRPSGVPDRFSGSKSGTSASLAISGLRSEDEADYYCHAWDSSLWGDVFGGGTKLTVLG | < 1 | < 1e-07 | 665000 |
| 442M8 (antibody, V domains shown, IgG1 (Selexis 085 vector, CHO)) VH: EVQLLESGGGLVQPGGSLRLSCAASGFTFSDYDMSWVRQAPGKGLEWVSSIYPDSGSTYYADSVQGRFTISRDNSKNTLYLQMNSLRAEDTAVYYCAKDLHMGPEGPFDYWGQGTLVTVSS VL: QSVLTQPPSASGTPGQRVTISCSGSSSNIGSNSVSWYQQLPGTAPKLLIYSDNHRPSGVPDRFSGSKSGTSASLAISGLRSEDEADYYCHAWDSSLYVDVFGGGTKLTVLG | 2.56 | 2.23e-06 | 870000 |
| 442S10 (antibody, V domains shown, IgG1 (Selexis 085 vector, CHO)) VH: EVQLLESGGGLVQPGGSLRLSCAASGFTFSDYDMSWVRQAPGKGLEWVSSIYPDSGSTYYADSVQGRFTISRDNSKNTLYLQMNSLRAEDTAVYYCAKDRHMWPEGPFDYWGQGTLVTVSS VL: not shown | 114 | 9.29e-05 | 814000 |
| 442S4 (antibody, V domains shown, IgG1 (Selexis 085 vector, CHO)) VH: EVQLLESGGGLVQPGGSLRLSCAASGFTFSDYDMSWVRQAPGKGLEWVSSIEPDFGSSYYADSVRGRFTISRDNSKNTLYLQMNSLRAEDTAVYYCAKDLHMGPEGPFDYWGQGTLVTVSS VL: not shown | 37.1 | 5.47e-05 | 1.48e+06 |
| 442S9 (antibody, V domains shown, IgG1 (Selexis 085 vector, CHO)) VH: EVQLLESGGGLVQPGGSLRLSCAASGFTFSDYDMSWVRQAPGKGLEWVSSIYPDSGSTYYADSVQGRFTISRDNSKNTLYLQMNSLRAEDTAVYYCAKDRHMWPEGPFDYWGQGTLVTVSS VL: QSVLTQPPSASGTPGQRVTISCSGSSSNIGSNSGSWYQQLPGTAPKLLIYADNHRPSGVPDRFSGSKSGTSASLAISGLRSEDEADYYCAAWDSSLSGYVFGGGTKLTVLG | 71.6 | 5.87e-05 | 821000 |
| 451M2 (antibody, V domains shown, IgG1 (Selexis 085 vector, CHO)) VH: EVQLLESGGGLVQPGGSLRLSCAASGFTFSDYDMSWVRQAPGKGLEWVSAIYYDSGSIYYADSAKGRFTISRDNSKNTLYLQMNSLRAEDTAVYYCAKDRLFASDSTFDYWGQGTLVTVSS VL: QSVLTQPPSASGTPGQRVTISCSGSPSNIGNNSVTWYQQLPGTAPKLLIYYDSHRPSGVPDRFSGSKSGTSASLAISGLRSEDEADYYCGSWDASLNGYVFGGGTKLTVLG | 12.6 | 1.56e-05 | 1.24e+06 |
